Measurements from the supplement of paper PMC7125110.
± gives the standard error. For part of these data: Variants at the floor of the assay were thinned out.

B1: glmS ribozyme (parent)
chain: AUAAAAGCGCCAGAACUACAGAAAUGUAGUUGACGAGGAGGAGGUUUAUCGAAUUUUCGGCGGAUGCCUCCAAA

Experiments:
Conditions in all cases: with glucosamine-6-phosphate
glucosamine-6-phosphate [1] = variants of: B1; experiment: kcat; higher = faster cleavage; RNA array
How it was run: (§1)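 Over ~14 h at 37 °C, tiles were imaged as glucosamine-6-phosphate (40 μM to 10 mM) in HEPES/KCl/Mg(OAc)2 buffer flowed across sequenced MiSeq chips. The chips carried barcoded ribozyme variants transcribed in situ by E. coli RNA polymerase and tracked with a hybridised Cy3 probe. After normalisation to baseline and to non-cleaving reference variants, one- or two-exponential decay fits of per-tile medians gave kobs. kcat and KM followed from weighted Michaelis–Menten fits across concentrations.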

glucosamine-6-phosphate [2] = variants of: B1; experiment: self-cleavage kobs at 640 uM GlcN6P; higher = faster cleavage; RNA array
How it was run: as §1

glucosamine-6-phosphate [3] = variants of: B1; experiment: self-cleavage kobs at 2500 uM GlcN6P; higher = faster cleavage; RNA array
How it was run: as §1

glucosamine-6-phosphate [4] = variants of: B1; experiment: self-cleavage kobs at 10000 uM GlcN6P; higher = faster cleavage; RNA array
How it was run: as §1

glucosamine-6-phosphate [5] = variants of: B1; experiment: KM; higher = weaker cofactor use; RNA array
How it was run: as §1

glucosamine-6-phosphate [6] = variants of: B1; experiment: self-cleavage kobs at 40 uM GlcN6P; higher = faster cleavage; RNA array
How it was run: as §1

glucosamine-6-phosphate [7] = variants of: B1; experiment: self-cleavage kobs at 160 uM GlcN6P; higher = faster cleavage; RNA array
How it was run: as §1

| Variant | kcat (glucosamine-6-phosphate [1]) [s⁻¹] | self-cleavage kobs at 640 uM GlcN6P (glucosamine-6-phosphate [2]) [s⁻¹] | self-cleavage kobs at 2500 uM GlcN6P (glucosamine-6-phosphate [3]) [s⁻¹] | self-cleavage kobs at 10000 uM GlcN6P (glucosamine-6-phosphate [4]) [s⁻¹] | KM (glucosamine-6-phosphate [5]) [µM] | self-cleavage kobs at 40 uM GlcN6P (glucosamine-6-phosphate [6]) [s⁻¹] | self-cleavage kobs at 160 uM GlcN6P (glucosamine-6-phosphate [7]) [s⁻¹] |
| --- | --- | --- | --- | --- | --- | --- | --- |
| A52G U65G | 0.000271 ± 0.00011 | 5.52e-05 ± 9.3e-06 | 8.89e-05 ± 9.9e-06 | 0.00022 ± 3e-05 | – | – | – |
| A52U U55C | 0.000619 ± 0.00011 | – | 0.000125 ± 3.2e-05 | 0.000288 ± 4.2e-05 | – | – | – |
| A52U U55A | 0.000247 ± 3.7e-05 | 3.67e-05 ± 1.3e-05 | 0.000147 ± 1.8e-05 | 0.000191 ± 1.8e-05 | 2490 ± 990 | – | – |
| U47C U54C | 0.00359 ± 0.00063 | 0.00141 ± 0.00017 | 0.00299 ± 0.00053 | 0.00275 ± 0.00046 | 1240 ± 310 | 9.72e-05 ± 1.5e-05 | 0.000434 ± 7.2e-05 |
| U47C C58G G59A C61U C71A | 1.36e-05 ± 3.4e-06 | – | – | – | – | – | – |
| A52U U69G | 2.57e-05 ± 7.6e-06 | 3.97e-05 ± 1e-05 | 2.11e-05 ± 7.8e-06 | – | – | – | 4.23e-05 ± 1.1e-05 |
| A52U C70G | 7.01e-05 ± 1.1e-05 | 5.38e-05 ± 1.1e-05 | 8.15e-05 ± 8.6e-06 | 5.93e-05 ± 7.6e-06 | – | – | – |
| A48C G66U | 2.77e-05 ± 2.1e-07 | – | – | – | 2750 ± 61 | – | – |
| C50U G60U C70U | 1.49e-05 ± 6e-06 | – | – | – | – | – | – |
| C50A U55A | 1.62e-05 ± 1.3e-06 | – | – | – | 3470 ± 790 | – | – |
| U49C C71G | 1.02e-05 ± 5.3e-07 | – | – | – | – | – | – |
| G51U C61A | < 1e-05 | – | – | < 1e-05 | – | < 1e-05 | < 1e-05 |
| U49A A64G | 2.04e-05 ± 1.6e-06 | – | – | – | 2090 ± 850 | – | – |
| U47C C70U | 0.00786 ± 0.0023 | 0.00151 ± 0.00028 | 0.00519 ± 0.00095 | 0.00635 ± 0.0016 | 2070 ± 790 | 0.000179 ± 2.6e-05 | 0.000483 ± 0.00014 |
| A48G C61A | 1.07e-05 ± 3.1e-06 | – | – | – | – | – | – |
| G51U C68A | 2.77e-05 ± 5e-06 | – | – | – | – | – | – |
| A53C U55A | 0.00829 ± 0.0024 | 0.00172 ± 0.00021 | 0.00411 ± 0.00049 | 0.00772 ± 0.00094 | 2150 ± 840 | 0.000204 ± 1.9e-05 | 0.000453 ± 6.9e-05 |
| A52C C68U | 1.28e-05 ± 5.9e-07 | – | – | – | 249 ± 86 | < 1e-05 | – |
| C50G U69C | 0.000107 ± 2.1e-05 | 9.95e-05 ± 1.7e-05 | 0.000193 ± 3.4e-05 | 9.16e-05 ± 1.9e-05 | – | 0.000118 ± 3.6e-05 | 9.81e-05 ± 2.6e-05 |
| C50A C71U | 1.86e-05 ± 6.3e-07 | – | – | 1.86e-05 ± 8.6e-06 | 296 ± 82 | – | – |
| A53C C67G | 3.47e-05 ± 4.1e-06 | – | 3.42e-05 ± 9e-06 | 3.14e-05 ± 6.5e-06 | – | < 1e-05 | – |
| A53C C67A | 0.000935 ± 0.0003 | 0.000414 ± 6.3e-05 | 0.000435 ± 0.00011 | 0.000889 ± 0.00017 | 1500 ± 750 | – | 7.58e-05 ± 1.6e-05 |

| Variant | kcat (glucosamine-6-phosphate [1]) [s⁻¹] | self-cleavage kobs at 640 uM GlcN6P (glucosamine-6-phosphate [2]) [s⁻¹] | self-cleavage kobs at 2500 uM GlcN6P (glucosamine-6-phosphate [3]) [s⁻¹] | self-cleavage kobs at 10000 uM GlcN6P (glucosamine-6-phosphate [4]) [s⁻¹] | KM (glucosamine-6-phosphate [5]) [µM] | self-cleavage kobs at 40 uM GlcN6P (glucosamine-6-phosphate [6]) [s⁻¹] | self-cleavage kobs at 160 uM GlcN6P (glucosamine-6-phosphate [7]) [s⁻¹] |
| --- | --- | --- | --- | --- | --- | --- | --- |
| A53C C67U | 0.00119 ± 0.00012 | 0.000355 ± 3.8e-05 | 0.000692 ± 8.1e-05 | 0.00108 ± 0.00011 | 1500 ± 230 | 4e-05 ± 6.8e-06 | 0.000109 ± 1e-05 |
| U47G U55A | 0.00811 ± 0.0025 | 0.00187 ± 0.00028 | 0.00514 ± 0.00081 | 0.00878 ± 0.0013 | 1410 ± 600 | 0.000281 ± 3.1e-05 | 0.000855 ± 0.00014 |
| A52C C67A C68G | 2.5e-05 ± 1.2e-05 | – | – | – | – | – | – |
| U47C U57A | 0.000495 ± 0.00012 | – | 2.94e-05 ± 1.3e-05 | 0.0001 ± 2.7e-05 | – | – | – |
| A52G C58G | 1.7e-05 ± 1.7e-06 | – | – | – | – | – | – |
| G51A G62U | < 1e-05 | – | – | – | – | – | < 1e-05 |
| C50A U69G | 5.56e-05 ± 1.8e-05 | 7.86e-05 ± 1.3e-05 | 7.89e-05 ± 1.3e-05 | – | – | 2.65e-05 ± 1.3e-05 | 6.06e-05 ± 1.3e-05 |
| A52C G66C | 1.28e-05 ± 2.9e-06 | < 1e-05 | – | – | – | < 1e-05 | – |
| G51A C67A | 1.27e-05 ± 2.8e-06 | – | – | – | – | – | – |
| A52U U65C | < 1e-05 | – | – | – | – | < 1e-05 | – |
| G51A G59A C70U | 1.55e-05 ± 3.5e-06 | – | – | < 1e-05 | – | < 1e-05 | – |
| G51A C71G | 2.05e-05 ± 3.5e-06 | – | – | – | – | – | – |
| G51A C71U | < 1e-05 | – | – | – | – | < 1e-05 | – |
| C50U U57C G63A | 2.57e-05 ± 3.6e-06 | – | – | – | – | – | – |
| G51U C67G | < 1e-05 | – | – | – | – | – | – |
| G51A G66C | < 1e-05 | – | – | – | 510 ± 240 | – | – |
| C50U G66A | 0.000123 ± 5.1e-05 | – | – | 4.11e-05 ± 9.9e-06 | – | – | – |
| A48U C70U | 0.000821 ± 0.00021 | 0.000334 ± 5.5e-05 | 0.000416 ± 6.2e-05 | 0.000671 ± 9.3e-05 | 2160 ± 900 | – | 5.07e-05 ± 8e-06 |
| C50G C70U | 0.000103 ± 2.1e-05 | – | 0.000149 ± 1.4e-05 | 7.8e-05 ± 8.6e-06 | – | 8.81e-05 ± 1e-05 | 0.000129 ± 1.5e-05 |
| U49C C67U | 1e-05 ± 1e-06 | – | – | – | 267 ± 130 | – | – |
| C50U A53C | 1.18e-05 ± 1.3e-06 | – | – | – | – | – | – |
| C50U A53G | 6.82e-05 ± 1.3e-06 | 3.45e-05 ± 1.6e-05 | 5.41e-05 ± 1.5e-05 | 6.42e-05 ± 1.5e-05 | 642 ± 54 | – | – |
